# Results taken from patent US20250000946A1.
# B1: W3XX115-T3U0.E44-1.uIgG4V322 (Fc fusion)
# chain: APTSSSTKKTQLQLEHLLLDLQMILNGINNYKNPKLTRMLTAKFAMPKKATELKHLQCLEEELKPLEEVLNGAQSKNFHLRPRDLISNINVIVLELKGSETTFMCEYADETATIVEFLNRWITFCQSIISTLTESKYGPPCPPCPAPEAAGGPSVFLFPPKPKDTLMISRTPEVTCVVVDVSQEDPEVQFNWYVDGVEVHNAKTKPREEQFNSTYRVVSVLTVLHQDWLNGKEYKCKVSNKGLPSSIEKTISKAKGQPREPQVYTLPPCQEEMTKNQVSLWCLVKGFYPSDIAVEWESNGQPENNYKTTPPVLDSDGSFFLYSRLTVDKSRWQEGNVFSCSVMHEALHNHYTQKSLSLSLG
# heavy: EIQLQQSGPELVKPGASVKVSCKASGYSFTDYNMYWVKQSHGESLEWIGYIDPYNGGTRYNQKFKGKATLTVDKSSSTAFMHLNSLTSEDSAVYYCARNGHWDGAWFAYWGQGTLVTVSAASTKGPSVFPLAPCSRSTSESTAALGCLVKDYFPEPVTVSWNSGALTSGVHTFPAVLQSSGLYSLSSVVTVPSSSLGTKTYTCNVDHKPSNTKVDKRVESKYGPPCPPCPAPEAAGGPSVFLFPPKPKDTLMISRTPEVTCVVVDVSQEDPEVQFNWYVDGVEVHNAKTKPREEQFNSTYRVVSVLTVLHQDWLNGKEYKCKVSNKGLPSSIEKTISKAKGQPREPQVCTLPPSQEEMTKNQVSLSCAVKGFYPSDIAVEWESNGQPENNYKTTPPVLDSDGSFFLVSRLTVDKSRWQEGNVFSCSVMHEALHNHYTQKSLSLSLG
# light: DIQMNQSPSSLSASLGDTITITCHASQNINVWLSWYQQKPGNIPKLLIYKASNLHTGVPSRFSGSRSGTGFTLTISSLQPEDIATYYCHQGQSYPFTFGSGTKLEIKRTVAAPSVFIFPPSDEQLKSGTASVVCLLNNFYPREAKVQWKVDNALQSGNSQESVTEQDSKDSTYSLSSTLTLSKADYEKHKVYACEVTHQGLSSPVTKSFNRGEC
# B2: W3XX115-T2U0.E44-32.uIgG4V322 (Fc fusion)
# chain: APTSSSTKKTQLQLEHLLLDLQMILNGINNYKNPKLTRMLTIKFYMPKKATELKHLQCLEEELKPLEEVLNLAQSKNFHLRPRDLISNINVIVLELKGSETTFMCEYADETATIVEFLNRWITFCQSILESKYGPPCPPCPAPEAAGGPSVFLFPPKPKDTLMISRTPEVTCVVVDVSQEDPEVQFNWYVDGVEVHNAKTKPREEQFNSTYRVVSVLTVLHQDWLNGKEYKCKVSNKGLPSSIEKTISKAKGQPREPQVYTLPPCQEEMTKNQVSLWCLVKGFYPSDIAVEWESNGQPENNYKTTPPVLDSDGSFFLYSRLTVDKSRWQEGNVFSCSVMHEALHNHYTQKSLSLSLG
# heavy: EIQLQQSGPELVKPGASVKVSCKASGYSFTDYNMYWVKQSHGESLEWIGYIDPYNGGTRYNQKFKGKATLTVDKSSSTAFMHLNSLTSEDSAVYYCARNGHWDGAWFAYWGQGTLVTVSAASTKGPSVFPLAPCSRSTSESTAALGCLVKDYFPEPVTVSWNSGALTSGVHTFPAVLQSSGLYSLSSVVTVPSSSLGTKTYTCNVDHKPSNTKVDKRVESKYGPPCPPCPAPEAAGGPSVFLFPPKPKDTLMISRTPEVTCVVVDVSQEDPEVQFNWYVDGVEVHNAKTKPREEQFNSTYRVVSVLTVLHQDWLNGKEYKCKVSNKGLPSSIEKTISKAKGQPREPQVCTLPPSQEEMTKNQVSLSCAVKGFYPSDIAVEWESNGQPENNYKTTPPVLDSDGSFFLVSRLTVDKSRWQEGNVFSCSVMHEALHNHYTQKSLSLSLG
# light: DIQMNQSPSSLSASLGDTITITCHASQNINVWLSWYQQKPGNIPKLLIYKASNLHTGVPSRFSGSRSGTGFTLTISSLQPEDIATYYCHQGQSYPFTFGSGTKLEIKRTVAAPSVFIFPPSDEQLKSGTASVVCLLNNFYPREAKVQWKVDNALQSGNSQESVTEQDSKDSTYSLSSTLTLSKADYEKHKVYACEVTHQGLSSPVTKSFNRGEC
# B3: W3XX115-T2U0.E44-31.uIgG4V322 (Fc fusion)
# chain: APTSSSTKKTQLQLEHLLLDLQMILNGINNYKNPKLTRMLTVKFYMPKKATELKHLQCLEEELKPLEEVLNLAQSKNFHLRPRDLISNINVIVLELKGSETTFMCEYADETATIVEFLNRWITFCQSILESKYGPPCPPCPAPEAAGGPSVFLFPPKPKDTLMISRTPEVTCVVVDVSQEDPEVQFNWYVDGVEVHNAKTKPREEQFNSTYRVVSVLTVLHQDWLNGKEYKCKVSNKGLPSSIEKTISKAKGQPREPQVYTLPPCQEEMTKNQVSLWCLVKGFYPSDIAVEWESNGQPENNYKTTPPVLDSDGSFFLYSRLTVDKSRWQEGNVFSCSVMHEALHNHYTQKSLSLSLG
# heavy: EIQLQQSGPELVKPGASVKVSCKASGYSFTDYNMYWVKQSHGESLEWIGYIDPYNGGTRYNQKFKGKATLTVDKSSSTAFMHLNSLTSEDSAVYYCARNGHWDGAWFAYWGQGTLVTVSAASTKGPSVFPLAPCSRSTSESTAALGCLVKDYFPEPVTVSWNSGALTSGVHTFPAVLQSSGLYSLSSVVTVPSSSLGTKTYTCNVDHKPSNTKVDKRVESKYGPPCPPCPAPEAAGGPSVFLFPPKPKDTLMISRTPEVTCVVVDVSQEDPEVQFNWYVDGVEVHNAKTKPREEQFNSTYRVVSVLTVLHQDWLNGKEYKCKVSNKGLPSSIEKTISKAKGQPREPQVCTLPPSQEEMTKNQVSLSCAVKGFYPSDIAVEWESNGQPENNYKTTPPVLDSDGSFFLVSRLTVDKSRWQEGNVFSCSVMHEALHNHYTQKSLSLSLG
# light: DIQMNQSPSSLSASLGDTITITCHASQNINVWLSWYQQKPGNIPKLLIYKASNLHTGVPSRFSGSRSGTGFTLTISSLQPEDIATYYCHQGQSYPFTFGSGTKLEIKRTVAAPSVFIFPPSDEQLKSGTASVVCLLNNFYPREAKVQWKVDNALQSGNSQESVTEQDSKDSTYSLSSTLTLSKADYEKHKVYACEVTHQGLSSPVTKSFNRGEC
# Target: Human IL-2Rα/β/γ complex (high affinity IL-2 receptor) (human) (UniProt P01589)
# Test: cell-based or functional assay
# Chain of Human IL-2Rα/β/γ complex (high affinity IL-2 receptor) (human) (P01589 22-272, chain 1 of 3): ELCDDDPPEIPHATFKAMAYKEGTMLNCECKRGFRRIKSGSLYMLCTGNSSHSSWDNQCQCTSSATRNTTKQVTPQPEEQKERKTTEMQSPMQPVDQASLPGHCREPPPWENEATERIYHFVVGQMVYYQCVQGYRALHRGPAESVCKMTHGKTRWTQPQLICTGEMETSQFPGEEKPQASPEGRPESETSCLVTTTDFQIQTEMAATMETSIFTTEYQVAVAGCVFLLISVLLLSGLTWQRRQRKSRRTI
# Chain of Human IL-2Rα/β/γ complex (high affinity IL-2 receptor) (human) (P14784 27-551, chain 2 of 3, further chain): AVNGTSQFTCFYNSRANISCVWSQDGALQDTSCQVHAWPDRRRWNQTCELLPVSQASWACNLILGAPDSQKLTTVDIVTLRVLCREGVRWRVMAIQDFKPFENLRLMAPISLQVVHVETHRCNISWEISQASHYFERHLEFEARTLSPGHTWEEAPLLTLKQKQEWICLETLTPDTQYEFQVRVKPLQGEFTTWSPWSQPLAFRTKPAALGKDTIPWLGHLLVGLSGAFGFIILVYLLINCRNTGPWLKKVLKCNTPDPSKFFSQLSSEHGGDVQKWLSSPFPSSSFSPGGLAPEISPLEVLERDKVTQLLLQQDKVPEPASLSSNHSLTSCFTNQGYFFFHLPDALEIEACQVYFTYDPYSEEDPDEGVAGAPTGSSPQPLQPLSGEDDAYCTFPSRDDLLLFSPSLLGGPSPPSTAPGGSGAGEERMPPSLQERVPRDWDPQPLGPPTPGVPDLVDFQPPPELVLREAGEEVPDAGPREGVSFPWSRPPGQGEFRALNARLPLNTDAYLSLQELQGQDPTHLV
# Chain of Human IL-2Rα/β/γ complex (high affinity IL-2 receptor) (human) (P31785 23-369, chain 3 of 3, further chain): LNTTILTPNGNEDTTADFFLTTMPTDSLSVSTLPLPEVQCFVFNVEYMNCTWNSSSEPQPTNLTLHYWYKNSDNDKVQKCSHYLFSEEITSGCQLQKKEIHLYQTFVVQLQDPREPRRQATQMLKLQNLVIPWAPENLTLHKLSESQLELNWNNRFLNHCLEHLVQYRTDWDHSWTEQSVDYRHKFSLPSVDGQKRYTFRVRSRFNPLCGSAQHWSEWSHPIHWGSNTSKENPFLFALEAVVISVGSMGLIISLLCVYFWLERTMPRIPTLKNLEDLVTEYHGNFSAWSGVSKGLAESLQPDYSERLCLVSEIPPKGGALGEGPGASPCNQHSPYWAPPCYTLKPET
Binder,Human Treg Potency EC50 (STAT5 phosphorylation) [nM],Human Treg Potency reduction [fold]
B1,7.78,5560
B2,40.9,29200
B3,48.8,34900
